In assay [1] the target is T1, ST receptor (rat intestinal membrane) (rat), P23897.
T1 chain: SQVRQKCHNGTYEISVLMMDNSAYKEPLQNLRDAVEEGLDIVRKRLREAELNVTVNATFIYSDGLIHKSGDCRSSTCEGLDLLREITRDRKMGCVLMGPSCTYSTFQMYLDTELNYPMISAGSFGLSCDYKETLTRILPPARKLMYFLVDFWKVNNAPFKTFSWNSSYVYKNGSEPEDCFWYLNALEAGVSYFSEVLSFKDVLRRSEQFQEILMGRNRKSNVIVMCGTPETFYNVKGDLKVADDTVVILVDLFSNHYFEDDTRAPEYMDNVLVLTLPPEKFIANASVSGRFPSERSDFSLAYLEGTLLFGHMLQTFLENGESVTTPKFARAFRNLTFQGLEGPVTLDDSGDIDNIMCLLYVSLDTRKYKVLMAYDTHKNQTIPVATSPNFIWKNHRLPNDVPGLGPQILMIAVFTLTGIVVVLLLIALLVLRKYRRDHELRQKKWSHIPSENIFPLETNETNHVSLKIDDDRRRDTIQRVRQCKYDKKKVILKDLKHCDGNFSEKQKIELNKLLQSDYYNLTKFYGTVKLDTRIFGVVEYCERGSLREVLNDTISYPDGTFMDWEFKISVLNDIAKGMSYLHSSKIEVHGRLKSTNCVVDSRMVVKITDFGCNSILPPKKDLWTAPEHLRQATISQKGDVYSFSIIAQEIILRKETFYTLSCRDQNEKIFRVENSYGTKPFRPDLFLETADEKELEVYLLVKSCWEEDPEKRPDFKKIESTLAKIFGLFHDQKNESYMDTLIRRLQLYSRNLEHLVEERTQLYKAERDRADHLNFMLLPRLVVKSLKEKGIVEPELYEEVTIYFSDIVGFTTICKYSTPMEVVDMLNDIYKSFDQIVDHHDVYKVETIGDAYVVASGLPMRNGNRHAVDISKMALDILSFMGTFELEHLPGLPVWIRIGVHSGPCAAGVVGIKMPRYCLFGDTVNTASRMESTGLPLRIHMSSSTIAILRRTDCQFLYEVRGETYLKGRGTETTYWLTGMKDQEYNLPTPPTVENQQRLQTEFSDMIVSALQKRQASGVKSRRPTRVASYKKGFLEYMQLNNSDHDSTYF
The assay is described as follows: radioligand competition binding against [125I]ST1-17 on rat intestinal membrane. Background: Loss of bound radioactivity is the signal in a displacement assay; it reports binding, not function.

For assay [2], the target named is T1, ST receptor (rat intestinal membrane) …. The assay is described as follows: radioactive binding assay, labelled compound ca. 0.05 nM on rat intestinal membrane, filtration.
The target is the same in assay [3].

Values joined by “and” are separate entries in the source; they are usually repeats but may differ in a detail not shown here. Equal entries are not always repeated. Where two headings read alike, the source gives them in different places. Square brackets hold non-standard residues; d marks the D form. Ends that are not written are not given here.

What is called Ki is the equilibrium dissociation constant of an inhibitor or competing ligand from its target. Low values mean higher affinity, high ones lower affinity. In assay [1], CCELCCNPACAGCY (modifications not checked) [CA3-ST5-18] came in with a Ki of 0.8 nM.

Regarding CCELCCNPACAGCY (modifications not checked) [ST5-18], in assay [1], the Ki was found to be 0.4 nM.

For GGG[dE][dE][dE]CCELCCNPACAGCY (not fully specified (N-terminus); cysteine pairing not given here) [CA1-(Gly)3-(D-Glu)3-ST5-18], the Ki in assay [1] is 1 nM.

With CCELCCNPACAGCY (modifications not checked) [99mTc-labelled CA1-ST5-18], in assay [2], the binding, % of total added is 6%.

On to CCELCCNPACAGCY (modifications not checked) [CA1-ST5-18], for which, in assay [1], the Ki turned out to be 2.8 nM and the fold reduction in binding efficacy against the unconjugated ST peptide turned out to be 10 fold. Also, the Ki in assay [3] was 2.8 nM and 3.5 nM.

For the molecule KKKKKKGCCELCCNPACAGCY (modifications not checked) [CA1-(Lys)6-Gly-ST5-18], the Ki in assay [1] amounted to 72 nM. This lies in the double-digit nanomolar range.

The values are drawn from patent publication US20060222593A1.
